Measurements from EP4578463A1, “ENDO-180 TARGETED ANTIBODY-DRUG CONJUGATES” (Oncomatryx Biopharma, S.L., priority 2023, dated 2025).
Substitutions are numbered along the chain they refer to. Names and notes keep the numbering of the source.

Experiments:
[1] = molecular target: T1, human Endo180-moFc domains I-III (aa 31-370) (human, UniProt Q9UBG0 31-370); experiment: ELISA, immobilized huEndo180-moFc
T1 construct: also called huEndo180 (DI-III); huEndo180-moFc DI-III; not shown: murine Fc domain
T1 sequence: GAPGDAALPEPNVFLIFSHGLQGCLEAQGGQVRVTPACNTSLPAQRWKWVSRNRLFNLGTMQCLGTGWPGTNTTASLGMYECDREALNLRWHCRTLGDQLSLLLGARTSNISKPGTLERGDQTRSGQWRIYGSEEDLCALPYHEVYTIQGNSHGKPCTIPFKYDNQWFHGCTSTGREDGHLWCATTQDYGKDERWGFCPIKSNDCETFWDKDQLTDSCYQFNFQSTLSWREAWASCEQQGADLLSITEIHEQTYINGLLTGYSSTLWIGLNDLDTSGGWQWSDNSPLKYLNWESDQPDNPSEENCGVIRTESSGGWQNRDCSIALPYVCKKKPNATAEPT

[2] = molecular target: T2, human Endo180-moFc DI-DIV variant region 2 (Q254K, T256A, S258T, E261Q) (human, UniProt Q9UBG0 31-513); experiment: ELISA, 10 nM IgG on immobilized variant (3 µg/ml)
T2 construct: not shown: murine Fc
T2 chain: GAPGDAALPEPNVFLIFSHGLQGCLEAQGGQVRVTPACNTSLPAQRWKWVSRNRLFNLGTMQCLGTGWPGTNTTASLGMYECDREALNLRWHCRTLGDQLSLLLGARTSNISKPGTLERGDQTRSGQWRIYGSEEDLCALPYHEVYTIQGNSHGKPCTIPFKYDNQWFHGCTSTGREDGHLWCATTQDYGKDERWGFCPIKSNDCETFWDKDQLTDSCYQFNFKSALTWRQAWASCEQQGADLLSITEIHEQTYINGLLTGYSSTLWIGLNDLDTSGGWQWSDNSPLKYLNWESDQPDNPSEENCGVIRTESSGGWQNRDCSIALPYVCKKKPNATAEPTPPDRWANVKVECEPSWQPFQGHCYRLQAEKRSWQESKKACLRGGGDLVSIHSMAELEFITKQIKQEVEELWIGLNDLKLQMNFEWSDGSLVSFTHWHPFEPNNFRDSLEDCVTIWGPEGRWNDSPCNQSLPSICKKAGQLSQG

[3] = molecular target: T3, human Endo180-moFc DI-DIV variant region 1 (N233E, D234G, T237S, Q243P, D246S) (human, UniProt Q9UBG0 31-513); experiment: ELISA, 10 nM IgG on immobilized variant (3 µg/ml)
T3 construct: Domain III residues swapped to those of MRC1; not shown: murine Fc
T3 chain: T2 chain with N203E, D204G, T207S, Q213P, D216S, K224Q, A226T, T228S, Q231E

[4] = molecular target: T4, human Endo180-moFc DI-DIV variant region 4 (D304S, T305F, S306N) (human, UniProt Q9UBG0 31-513); experiment: ELISA, 10 nM IgG on immobilized variant (3 µg/ml)
T4 construct: not shown: murine Fc
T4 chain: T2 chain with K224Q, A226T, T228S, Q231E, D274S, T275F, S276N

B1: Human IgG1 G7V with a wildtype γ1 heavy chain (antibody, V domains shown)
VH: EVQLVESGGGLVKPGGSLRLSCAASGFTFSSYSMNWVRQAPGKGLEWVANIKPDGSERHSVDSVKGRFTISRDNSKNSLYLQMNSLRAEDTAVYYCARPGAGRLDYWGQGTLVTVSS
VL: SSELTQDPAVSVALGQTVRITCQGDSLRSYYASWYQQKPGQAPVLVVYGKNNRPSGIPDRFSGSSSGNTASLTITGAQAEDEADYYCNSRDSSGNPWAFGGGTKVTVLG
notes: Naked antibody, made in HEK293-6E (lab scale) or CHO (1 L scale); also called IgG G7V; OMTX007-G7V
EC50 [1]: 500 pM
binding result [2]: binds
binding result [3]: binds
binding result [4]: binds
